Laboratory results from the DeepSol protein solubility set.

assay: soluble on expression in E. coli; label from the status in PepcDB or PDB records

| Sequence | soluble on expression in E. coli |
| --- | --- |
| MMEEYVVIGKVLDTFGLEGELKVRPYAPPEVFENLEKVYLKRKGGDWVPFEVEWVDFIDDKVIIKFKGYDSIDEVEQFKGAKLFLPKEELPELGEEEYYAYELVGMEVETDKGKKLGKVERVQDMGPYDALVLDKENLLVPFVSDIVLKVDKENKKIIVKEELLPVLEHHHHHH | soluble |
| GPGSMRSLVVHLLSYTQRFASAKPTILYVPQKTLIAEQVMEDEFKLSHTFPSLRIASLDLDYVFLEEKFFTMTLPLSFKSVFADGDLSNLTWIARLLLKLQTARFGAIRHIRGKGSNAAKVIQLLQRMQNNISHDFITDIPSEVETLIIIDRSVDFVTPLMTQLTYEGLIDELYDIENCEVQFPFSLGESSGVGASEKVVLNSTDRMFAEIRDRSFTGVGSVLYQKSIWVKQNYDKRKEVQQLKELKEFMKGLPEMQEMHRLIGIHTNVATEISKTTQRTDFRKRIMFEHNIIQQTNEGDVLRYIEDLVFRKEKFEVVLRLLALLSLVNSGLREKDLLGLKENMMLVYGIPHVITAFFMLERCGLLCAQSGKGSSYSTIRKQLRTWNSSVPEGQPNDIAYAYGGYAPPFVRMVDTLLRNPQAWDAEDDAPSLLPGEKKELMNDVEIAGTTKTAIVFVIGGITASEVSALRFVEERLSSGGRPHRIFIGTTDIISGNRMIRSLLPFEPAR | not soluble |
| MRGEVKKIIEAIGDIFIGHEDVIRKVLAVALVNGNILFEDYPGLGKTLLAKAFAKILGLKFKRIQFTPDLLPADIIGTKVWKPEKGAFEVVKGPIFTNILLADEINRAPPKTQSALLEAMEERQVTIEGETFKLERPFFIIATQNPLELEGTYPLPEAQLDRFLVRLNIGYPRNEEDELEILKARLRWGKDDPTSDISPIISREDFIRMQEEVERGVIIHDDILRYIVRLVRRIREDERIEAGPSPRGGLALMKLAKANAFIEGRSYVIPDDVKYFAVEALAHRIVLKPEYSLERGIAEEIIREVLEEVPVPKDIRY | soluble |
| MDMMWISYHLKKGGRRLRIRIGIDIGSTHTDAVALEGKELIVADKVMTTPDLTTGLLNAISRVMKKLGERKNEVDTLMIGTTHGLNALHQGKGLNRVATIRIGLPAGEGVPPVFDWPEQLSNFVTYRYMVRGGHEYTGEEIVELDEGKIKEIAEAINGKVDAIAISSIFSVVNSSHEIRAREILREKG | not soluble |
| SNADRRYKWQTVVSEQLVGAGFNEILNNSLTAGSYYEGLKSHPREMAVELMNPLSQELNCMRQTLLFGGLETLSHNLRRKHLSLYLFEWGKCYRFHAAKRTDETPLAAYAEDDRLGIWICGQRVHNSWAHPEEPTSVFELKAVVEQVLCRVGIETGAYTLKTADNDLYASAMEVKTRSGKLLGTFGTVSTELIKRFEIEQPVYFAELLWDALM | soluble |
| MQNISIAENNRTGIPVQSLSYEQAAKGPTGSIMTEGYAKAIANYAYVWGWPMVNMHNRREAFKQVPYQGYIGGAMPAAPINHLTMLSDYVSPNMRDVAHPNQDVVYGFGMLSLDKEPVVIQVPDFGDRFWTVMAEDQRTDSFAQLSSIYDSKPGFYMIVSPEWDGEIPEGINKVFRSSTDLAVVIPRVFMDDTAEDREAIQSVVNQLGAYPLSEFTGIMKITNWKSLPNIPEAKKTKSEKTWVNPNMFFSAEQLGKVLEEVSPLPGEEAMYAQFKELLLQAEENKELQKILNDVANEAEMNIVTPLFRLENVGKEINNYWTRPQDNGRFGTDYLTRLAVAKSNIFTNDVTETSYLYQYKDENGTRINGNHNYTLTFKKGELPPVDGFWSLTMYNSNHFFVPNDIKRYSIGTKNKGMKYNKDGSLTIYIQNEKPSEDKIGNWLPAPKDDIAMTIRAYGPKEEMLSGTWQPPAVVKIKLEHHHHHH | soluble |
| SARGRKMSKPRAVEAAAAAAAVAATAPGPEMVERRGPGRPRTDGENVFTGQSKIYSYMSPNKCSGMRFPLQEENSVTHHEVKCQGKPLAGIYRKREEKRNAGNAVRSAMKSEEQKIKDARKGPLVPFPNQKSEAAEPPKTPPSSCDSTNAAIAKQALKKPIKGKQAPRKKAQGKTQQNRKLTDFYPVRRSSRKSKAELQSEERKRIDELIESGKEEGMKIDLIDGKGRGVIATKQFSRGDFVVEYHGDLIEITDAKKREALYAQDPSTGCYMYYFQYLSKTYCVDATRETNRLGRLINHSKCGNCQTKLHDIDGVRHLILIASRDIAAGEELLYDYGDRSKASIEAHPWLKH | not soluble |
| MAHHHHHHMLSKGNVKNLATDEINEMIDNSLKSGDTDEAPYFLQQNNIYWETGHRTYIPFFHFMIHKYTTKIIDDQIRKFTESVKSVHHTPYVFHKDGYFRSYYGDPDINMVFNLKKNTNFIFNSTGTHNSYSLLCNNNTYDKSTHIFDQVLMSAFKLDLKSVLENNV | not soluble |
| MGHHHHHHSHMKIFKFTPENNLFYGYILEDMKTGFNILREIMVEGYRPSIARLYDAEDGTQHFTHFADGKCVLIFMAEGNPRIAKVTGEGIAEIVARYPQCQRVDSKLIETWFNNLNWGPDKVAAERVQILKTGNMGFTTEVSGCWSCIHEIYESVINRIRTEFPHADDITMLGGHSSHSYQNGTNMYFVYDYNVVDCKPEEEIDKYHNPLNKIICEETIRLGGSMVHHHGIGKHRVHWSKLEHGSAWALLEGLKKQFDPNGIMNTGTIYPIEK | not soluble |
| MLVRKVCQNFFQNALAPFHKYRQSALMDATVALINGASLTLTSIGRFLPGQAQVKNKIKRVDRLLGNESLHRDIPLIFNNIIAMLTRKLSLCVVAVDWSGYHSHEYHILRASLICDGRSIPLLSQIVPSAEQQSEQIHKTFLNALARAVNPDARVILEHHHHHH | not soluble |
| MALVRFSPLYEFDRELGTLQRQMSRFLQPWPWTEAELKELSFAPAVEVKETDAAIELRVELPGIDPKDLDLQVTAEAVVLKGERRSEDRSEAEGVLRTEFRYGAFERVIPLPAQVKNTEAQADYQNGILVLTLPKRDEELHKVVKVDLGHLAAAPVAAEACERLEHHHHHH | soluble |
| PRRTDADGEKMLAYLNTLYADKQAFELRADSLRKEVRQRLGIDTLLAQCVNSTPILSKIRKFDGYTVQNFALETLPGLYVCGSVYTPQSKGKHALIICPNGHFGGGRYREDQQQRMGTLARMGAVCVDYDLFGWGESILQVGSTAHRSSAAHTIQAMNGLLILDYMLASRKDIDTKRIGANGGSGGGTHTVLLTTLDDRFTASAPVVSLASHFDGGCPCESGMPIQLSAGGTCNAELAATFAPRPQLVVSDGGDWTASVPALEFPYLQRIYGFYDAKDNVTNVHLPKEKHDFGPNKRNAVYDFFAEVFD | not soluble |
| MGSDKIHHHHHHMDVNEIRENAKKLMELMMLDKPFVAVKLAKSKEEIPEGYETLDEEKRHCEMIQMARLERKKLYATVDKHLCKGGAYAMGVFRNPPEPLATGKLYVKLGNFKDEEAAKKTVDAIPKVEEEIYATVYAPLDETDFIPDSIVFIGEPLYALRLVQAILYHKGGRFQADFSGIQSLCADAVAAVYTRKAPNMTLGCNGSRKYAGIKPEEVVVAFPPEKLKDIVEAIEHFRQVWTCGH | not soluble |
| GSEVAIKMVVVGNGAVGKSSMIQRYCKGIFTKDYKKTIGVDFLERQIQVNDEDVRLMLWDTAGQEEFDAITKAYYRGAQACVLVFSTTDRESFEAISSWREKVVAEVGDIPTALVQNKIDLLDDSCIKNEEAEGLAKRLKLRFYRTSVKEDLNVSEVFKYLAEKHLQK | soluble |
| NMDVDIMSNQDEWRLYRYFIGRSKQTYARPSGSGTSTNEILQEGYYKVPIFARSRYWFNGEYWPALFEQAYANWKFPNDSKYNAILQIGGGWPEEALCELSGDSWFTSSGKLMLSSFTDLSLLNFMKSMCYSWKTIKPMVIVTPCWEPLPPMMPGIAAYH | not soluble |
| MELSPAERQLLLAHRLAVFDGCVVYDAQPPVSAEHVQRLAEGLAGPIPEDLLRLWRTCFGGRLGYDLEVDYDGHRHPFSFSELFYPDSDGYHDLWGWIEHERELAAEAAAEEGRDWNGKLAYLPFGGFEYLERLYVCVEPGPEHGAVIAWSHGLPPAWAGRLHQDSVTRLADDVGGLFRLLSFEQDPFDAENACGVADELLEALDALEAAGEPGKALKGRLEVLLRQRILDWRPALADGSLAAEPRLRQLALAEAAQDGDIDLLQRLRDAGCDFAETLRGRGGVLEACLARGRLEAARWLLDQGVAVHQDSLQIGAAHLDAVLAERLLRLGAISDPNTVLLALQYGDADAARIMARPLLEESPARANALRLALASRAERERSDARRVRSGKMGSNRSPDDYLALAERLERFLAELPG | not soluble |
| MAKEFLIELGTEELPPKQLRTLAEAFAANFAAELATADIAHEGVTWFATPRRLALKVANLAESQPDRVVEKRGPAVNVAFDADGKPTKAAEGWARGNGITVEQAERLVTDKGEWLLFKEQVQGQQTASVVVEMAAKALANLPIAKPMRWGDKETQFIRPVKTLTILFGSELIQGEILGVASARTLRGHRFMGEAEFTIESAEQYPAILEERGKVIADYATRKAMIIEGSQQAAQQLGGIADLEDALVEEVTSLVEWPVVMTAKFEEKFLKVPAEALVYTMKGDQKYFPVYDASKKLLPNFIFVSNIESKEPRHIVEGNEKVVRPRLADAEFFFNTDRKRPLVDRLPLLENAIFQQQLGTIKDKTDRITELAGYIAEQIGADVEKSKRAGLLAKCDLMTSMVFEFTDTQGVMGMHYARHDGEAEEVAVALNEQYMPRFAGDELPSRGVSAAVAMADKLDTIVGIFGIGQAPKGSDPFALRRASLGVLRILVEYGYQLDLVDLIAKAKSLFGDRLTNANVEQEVIEFMLGRFPTWYQDAGFSIDIIQAVLARNPTKPADFDQRVKAVSHFRALEEAEALAAANKRVGNILAKYDGELGEEIDLALLQEDAEKALAEAVEIMAEALEPAFATGNYQEALSKLAGLRAPVDAFFDNVMVMADDEALKKNRLTLLNKLRNLFLQIADISLLQK | not soluble |
| MLLTNKGDVMLGLKQVHHIAIIATDYAVSKAFYCDILGFTLQSEVYREARDSWKGDLALNGQYVIELFSFPFPPERPSRPEACGLRHLAFSVDDIDAAVAHLESHNVKCEAIRVDPYTQKRFTFFNDPDGLPLELYEQ | not soluble |
| MGSDKIHHHHHHMGSQLFVRNGRKMQLTESGKKLYIATHKAFDTLLKGFNSIQTEDVAGTLTITSTQAFTSLWLMPRLYKFSIKHPEIKVKVVSSNGLEDLRRGHIDLAIRFITNKEVDTSDDMTYEFIAEDHVYPACSPQLMKEYNFKEPQDVLKCWLVSLENQGSIDWRTWFKEAGVENYQCHKKWTEVSSGDMALSAVLSGHGFTLASQALFSQYVITGQLVIPFNIKHPISFKRYFVFDPNSAKKERVNVFTTWLKEETLQDEKSTLEAISYGSL | not soluble |
| MSESSVTTEIVVRLPKQMVTELDGIGKQENKNRHELICQATQLLLRQHKTKKRYQHESMRRGYIEMGKINLGIASEAFLAEYEAAHTVERLVSGG | not soluble |
| MSKEPRIKILNGQTVQVRKEDHTIMNPLRWCIGKNFTGEKVELVGYTIPHPSDDISNITIQLCDESLQTPPNLLKKLVEGLECMEAIGAKIASEIERSKGGFNK | not soluble |
| MGSDKIHHHHHHMTILDHKIDFAVILSVTKANPNGDPLNGNRPRQNYDGHGEISDVAIKRKIRNRLLDMEEPIFVQSDDRKADSFKSLRDRADSNPELAKMLKAKNASVDEFAKIACQEWMDVRSFGQVFAFKGSNLSVGVRGPVSIHTATSIDPIDIVSTQITKSVNSVTGDKRSSDTMGMKHRVDFGVYVFKGSINTQLAEKTGFTNEDAEKIKRALITLFENDSSSARPDGSMEVHKVYWWEHSSKLGQYSSAKVHRSLKIESKTDTPKSFDDYAVELYELDGLGVEVIDGQ | not soluble |
| MNVSVVIPALNEEATVADVVALSRRGSDEVIVIDSDSTDATAARAKAAGASVVNWRDVVSLPPIPGKGEALWRGVAAARGDVVVFLDADLTEISPTIVEDLARPFIDDSVMLAKAAYTRGDASGGGGRVTELTARPLLEAFFPELGFVRQPLGGEYAIRRSAALDLPFVGGYGVEVGLLIDVFRCFGAASIVEVEAGHRGHRHRPLRELAPMARVVASTILQRAGVASGLDGVGQRPAISSLESGVGKV | not soluble |
